From US20090018067A1 (published 2009)

Legend:
Assay in all cases: soluble HLA class II competition assay against a biotinylated control peptide, affinity grade
[1] = target: T1, HLA DRB1*0701 (purified recombinant soluble HLA class II molecule) (human)
T1 construct: also called DRB*0701

[2] = target: HLA DRB1*1501 (purified recombinant soluble HLA class II molecule) (human)
[3] = target: T2, HLA DRB1*0101 (purified recombinant soluble HLA class II molecule) (human)
T2 construct: also called DRB*0101

[4] = target: T3, HLA DRB1*0401 (purified recombinant soluble HLA class II molecule) (human)
T3 construct: also called DRB*0401

Measured: binding result

VDTSKNQFSLRLSSVTAADTA (Synthetic Fmoc peptide) [Tregitope-074]
binds: all assays above
